Consider 97 substances from the supplement of paper PMC12042874.

± gives the uncertainty stated by the source.

The nature of the series: amyloid nucleation score (Sup35N fusion, yeast selection) (log enrichment); library NNK3; higher = more nucleation; inactive = no reads after selection. Put shortly:
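Libraries of peptides of 20 random codons fused to Sup35N were expressed in psi-negative yeast and induced 24 hours with 100 μM copper sulfate. Selection was 7 days at 30°C on medium lacking adenine and uracil, and plasmid inserts were Illumina-sequenced before and after selection. Nucleation score is the DiMSum log enrichment of output over input reads, centred on the mode score of non-aggregating sequences, and sequences with under 100 input reads were left out.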

With VVWNMYKFKACWYRDVTPLF, the amyloid nucleation score entry is “inactive”.

Take IWYRDSFLPSGRYWFLRINW: the amyloid nucleation score entry was “inactive”.

As for CSGLCGFSQ, the amyloid nucleation score result is “inactive”.

As for CYLVLFGAM, the amyloid nucleation score result is “inactive”.

Take RSSLLSRVLSEITHSWQLCA: the amyloid nucleation score entry is “inactive”.

Consider VGDVFSKRCHMRLFMNSLER, for which the amyloid nucleation score result was “inactive”.

KRLFVTFFLSSLRGNILMWG: the amyloid nucleation score entry was “inactive”.

On to TVTVQYTG, for which the amyloid nucleation score entry is “inactive”.

On to TVSTNDFSL, for which the amyloid nucleation score is -0.61 ± 0.9.

For the substance FIGQGTNWYPYSVGANVSHH, the amyloid nucleation score is -0.241 ± 0.8.

Turning to DEFINLSFA, the amyloid nucleation score result is “inactive”.

For HHHSATLYFTFMSVTE, the amyloid nucleation score entry was “inactive”.

KYYFRGWKTEPVTWFGCQAM returned an amyloid nucleation score of 0.488 ± 0.2.

For GTDWCTRHMPGIDPCDSVVC, the amyloid nucleation score was -0.557 ± 1.

For SPLSRTFTPTYAGDMLLNSS, the amyloid nucleation score entry is “inactive”.

Take LCYALQEGRRWEGYEIRNSM: the amyloid nucleation score entry was “inactive”.

LRVYYYNMILDDFCVFVLEG had an amyloid nucleation score of 1.48 ± 0.13.

In the case of LDHYGLSLAHDVRRGVCCFW, the amyloid nucleation score was found to be 1.13 ± 0.14.

Regarding CFQDRQKLF, the amyloid nucleation score result was “inactive”.

Turning to SKVIAPWYEEMRWWRSTGAV, the amyloid nucleation score entry is “inactive”.

DRWVQAGSHTFTFLWDCERA: the amyloid nucleation score result was “inactive”.

Turning to EHYFSTSIVGCGFFIWWCWG, the amyloid nucleation score result was “inactive”.

Regarding KLFGRCNSNSPIVGWIRCGL, the amyloid nucleation score entry is “inactive”.

FYMASMCCWF: the amyloid nucleation score result is “inactive”.

For RLYVPLLVDVLWEKCKHSNV, the amyloid nucleation score entry was “inactive”.

As to CCRDVYTEGDM, the amyloid nucleation score result is “inactive”.

As to LSLVDEFQSPLLQLLFVQVA, the amyloid nucleation score entry was “inactive”.

For the substance WPSGFCYR, the amyloid nucleation score result is “inactive”.

Regarding RRVNFVNYSLWV, the amyloid nucleation score came out at 1.6 ± 0.1.

For ITIFDRMNH, the amyloid nucleation score result was “inactive”.

For the substance SRQKINHQCCYKFCVVDYY, the amyloid nucleation score was 1.56 ± 0.091.

For the substance PSRNYIVELS, the amyloid nucleation score result was “inactive”.

On to AMIINLRMWYNLRIIIMGTR, for which the amyloid nucleation score entry was “inactive”.

FCIEPR: the amyloid nucleation score result is “inactive”.

With VSVYKNVAFFISWI, the amyloid nucleation score came to 1.58 ± 0.09.

Consider CFGHYSMN, for which the amyloid nucleation score entry was “inactive”.

Turning to SPFCYRR, the amyloid nucleation score result was “inactive”.

As for TLFQSFRELLRNGVFCLRTM, the amyloid nucleation score result was “inactive”.

For the substance YVPIRSFVGEVLGSGDR, the amyloid nucleation score is 0.157 ± 0.59.

For the substance RRIFCLLVANDRLSMRVKCP, the amyloid nucleation score result was “inactive”.

GNVMSRRDTLWIVIYVRFRH: the amyloid nucleation score entry is “inactive”.

As for WVHVRPKHCTSGLVTKFANM, the amyloid nucleation score entry is “inactive”.

As for ADPSMVNVICHGLSDRGSY, the amyloid nucleation score entry is “inactive”.

SNDIRF: the amyloid nucleation score entry is “inactive”.

On to TSYVEVGFLVSKYQTWWAVN, for which the amyloid nucleation score entry is “inactive”.

For RFWFWQPVVYIIRWIRVPLA, the amyloid nucleation score entry was “inactive”.

For the substance YGAFWGYSAGAVKLNENFSV, the amyloid nucleation score entry is “inactive”.

RLGWFYRNIYLLTVEVGRGR: the amyloid nucleation score result was “inactive”.

CPGDPVESRCFPVLVNLRRG: the amyloid nucleation score result was “inactive”.

As to SYRIRCYAVNITPIAMYIIC, the amyloid nucleation score result is “inactive”.

On to FVPFERNKMIMKRICEVCVA, for which the amyloid nucleation score was determined as 0.97 ± 0.11.

Take SKEAVLRVNPVVTFFSGSTR: the amyloid nucleation score result was “inactive”.

FAMETLNSSTFRCYHQFYGF: the amyloid nucleation score entry was “inactive”.

Turning to SLWRLMSETVGLKKMQ, the amyloid nucleation score entry was “inactive”.

With DIRCGFLHKQGPLTMRATEQ, the amyloid nucleation score result was “inactive”.

For the substance VYLHYLTREVSDYLMWWFRV, the amyloid nucleation score result is “inactive”.

The substance KIMFLMGSASMDSTGTC came in with an amyloid nucleation score of 0.863 ± 0.12.

SYCKATRSVRQSNSARVVVR: the amyloid nucleation score entry is “inactive”.

Turning to DRAAMFSNSVQSCICTWMNI, the amyloid nucleation score was determined as 2.17 ± 0.061.

Regarding TEMMTFGFSGVMFVRVMFWL, the amyloid nucleation score result is “inactive”.

The substance ITSSVSFSRPYGVRGLLKKG yielded an amyloid nucleation score of 0.002 ± 0.43.

For the substance LCAFHKRNRQEVACVMFVKS, the amyloid nucleation score result is “inactive”.

For the substance IYRSIRQAVLCLGLSGS, the amyloid nucleation score entry was “inactive”.

With IGCWTSYSWNRSRKFYMQQE, the amyloid nucleation score amounted to 0.799 ± 0.17.

Take ILRYVLAHSVLKTCLMQGLA: the amyloid nucleation score result was “inactive”.

CPTIPMVGTF: the amyloid nucleation score entry was “inactive”.

With DLIWWRGAQAVNTLNSGSKR, the amyloid nucleation score is 0.115 ± 1.

For SWKVTMKPGNFWV, the amyloid nucleation score entry was “inactive”.

For LYKGSHWDQAFLSVWYLGVL, the amyloid nucleation score entry was “inactive”.

SWNRGNLTM: the amyloid nucleation score result is “inactive”.

On to RMAEVFLLIDCNFFYFDRYM, for which the amyloid nucleation score worked out at 2.02 ± 0.092.

For the substance LRHHSSSVAPVRVGILRCNS, the amyloid nucleation score entry is “inactive”.

As to IADDQTYLLVLLFYFIKKLN, the amyloid nucleation score result is “inactive”.

As to FCDGPGTKY, the amyloid nucleation score entry is “inactive”.

With TSAMSYFGDIYWCRKFRRVG, the amyloid nucleation score entry is “inactive”.

Regarding DVTRTCRYGEVYDWTIKIRP, the amyloid nucleation score result is “inactive”.

LRWSIEGFLVSMMKY: the amyloid nucleation score entry is “inactive”.

For KWNCHLVLPLWIPGLVMMGR, the amyloid nucleation score entry was “inactive”.

With EIVVYFEFLCYFVLEVLKSL, the amyloid nucleation score entry was “inactive”.

IDAYPVWELITLFLFGLMLY: the amyloid nucleation score result is “inactive”.

Consider VNMISCVYFDMSIERTDEMI, for which the amyloid nucleation score turned out to be 0.801 ± 0.19.

With IYNVFDDEDMICTSLVVSRS, the amyloid nucleation score result was “inactive”.

DFGMVLSNRFKTMKDCSYFC returned an amyloid nucleation score of 0.785 ± 0.23.

On to YDSKDF, for which the amyloid nucleation score entry was “inactive”.

Consider LFSELKISSVWCDL, for which the amyloid nucleation score result is “inactive”.

YDLRCCTAVLFDLVESRATL: the amyloid nucleation score result is “inactive”.

On to CFVFTFGT, for which the amyloid nucleation score was determined as 1.38 ± 0.082.

RIDTRNDRSNYR: the amyloid nucleation score result was “inactive”.

On to VMKNSTIILSFTFLSPKVSF, for which the amyloid nucleation score was 2.16 ± 0.069.

With SSSFVYFYSLVRFAPTLREY, the amyloid nucleation score entry was “inactive”.

WMFVRGDAGLRFVGG showed an amyloid nucleation score of 1.05 ± 0.21.

As for DLGFWPYFISIMACCWDQKG, the amyloid nucleation score stood at 1.15 ± 0.12.

Turning to FAYQFRLVDTSLSDF, the amyloid nucleation score entry was “inactive”.

On to CAMTLRTFFQPPPITTSKYC, for which the amyloid nucleation score result was “inactive”.

Turning to RLSIAASFLSLFRYVDFNSL, the amyloid nucleation score result was “inactive”.

Regarding SFGTLQKVK, the amyloid nucleation score entry was “inactive”.

As to IGTLSNLLTKGCKYYGVNIC, the amyloid nucleation score result was “inactive”.
